Laboratory results from patent US20050118611.

Tests used:
NF-κB p50 homodimer = NF-κB p50 homodimer (UniProt P19838); details: SELDI also detects p50 on IgκB surface; lost on stringent washing unlike XBY-6
[1] = target: NF-κB p65 (RelA) homodimer (UniProt Q04206); details: 1:1 stoichiometry; method not stated; cited from earlier work
Sequence of NF-κB p65 (RelA) homodimer (Q04206 whole entry): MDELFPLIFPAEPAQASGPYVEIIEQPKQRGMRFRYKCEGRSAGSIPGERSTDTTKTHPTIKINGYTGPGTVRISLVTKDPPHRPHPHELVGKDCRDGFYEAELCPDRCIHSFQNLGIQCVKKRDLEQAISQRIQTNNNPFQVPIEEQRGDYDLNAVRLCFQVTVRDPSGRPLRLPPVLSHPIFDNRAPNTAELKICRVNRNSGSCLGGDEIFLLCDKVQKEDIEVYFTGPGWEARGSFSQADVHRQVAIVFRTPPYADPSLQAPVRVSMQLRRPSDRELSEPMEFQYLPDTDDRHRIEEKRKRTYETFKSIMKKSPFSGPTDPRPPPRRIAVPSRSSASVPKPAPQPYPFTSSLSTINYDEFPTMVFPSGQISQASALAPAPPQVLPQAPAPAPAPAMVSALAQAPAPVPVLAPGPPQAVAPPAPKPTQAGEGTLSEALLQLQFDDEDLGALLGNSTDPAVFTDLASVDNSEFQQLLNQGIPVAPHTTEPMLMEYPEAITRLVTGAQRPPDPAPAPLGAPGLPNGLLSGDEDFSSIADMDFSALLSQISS

Sequence of NF-κB p50 homodimer (P19838 1-433): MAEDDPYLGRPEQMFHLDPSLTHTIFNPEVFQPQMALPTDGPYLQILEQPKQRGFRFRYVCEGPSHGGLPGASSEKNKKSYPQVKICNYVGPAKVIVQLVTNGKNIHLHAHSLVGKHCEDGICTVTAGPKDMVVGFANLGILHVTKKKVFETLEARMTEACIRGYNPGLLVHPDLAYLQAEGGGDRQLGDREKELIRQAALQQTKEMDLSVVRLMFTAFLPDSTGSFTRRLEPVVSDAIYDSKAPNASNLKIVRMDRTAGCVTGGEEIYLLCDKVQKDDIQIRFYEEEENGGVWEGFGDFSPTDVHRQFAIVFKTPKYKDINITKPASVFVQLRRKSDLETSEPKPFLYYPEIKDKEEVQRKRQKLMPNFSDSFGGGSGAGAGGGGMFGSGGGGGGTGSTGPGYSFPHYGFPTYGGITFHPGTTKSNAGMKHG

Q: Which Kd (NF-κB p50 homodimer) does the source give for IgκB 22-mer duplex here?
A: Its Kd is 4 nM.

Q: And the Kd [1]?
A: The Kd was 4 nM.
